2 molecules from US20250011468A1 (Novo Nordisk, published 2025) can be followed below.

Test [1] has as its target FIX T335A with C-terminal His-tag (human, UniProt P00740 47-461). Put plainly: SPR (Biacore T200), His-tagged FIX variant captured by anti-His antibody, one-armed antibody as analyte; % of wild-type binding. As to the method:
(§1) SPR analyses were carried out on Biacore 4000 or Biacore T200 instruments (Biacore AB, Uppsala, Sweden). For the experiments on the T200 instrument the following conditions were applied: measurements were conducted at a temperature of 25° C. Anti-His antibody at 25 μg/ml (R&D Systems, catalogue #MAB050) was immobilized on a CM5 sensor chip using standard amine coupling chemistry. […] at 25 nM were injected at a flow rate of 10 μl/min for 1 min and were captured via their His-tag by the immobilized anti-His antibody. Subsequently, 200 nM (with 4-fold serial dilutions), 1600 nM (with 3-fold serial dilutions), and 2000 nM (with 3-fold serial dilution) of mAb4-0004, mAb3-3279 and mAb4-0673, respectively, were injected at a flow rate of 50 μl/min for 5 min to allow for binding to captured FIX variant followed by a 10 min buffer injection allowing for dissociation of the monovalent anti-FIX antibodies. The running buffer used was 20 mM Tris, 150 mM NaCl, 5 mM CaCl₂, 0.05% Tween-20, 1 mg/ml BSA, pH 7.4. This was also used for dilution of anti-FIX antibody and FIX samples. Regeneration of the chip was achieved using 10 mM Glycine pH 2.0. Binding data were analysed according to a 1:1 model using BiaEvaluation 4.1 supplied by the manufacturer (Biacore AB, Uppsala, Sweden). A similar experimental set-up was used for the Biacore 4000 instrument.
(§2) A more detailed binding analysis was conducted for residues defined as epitope residues (see example 6) using the Biacore T200 instrument.
For orientation: In SPR one partner is held on a chip, and binding of the other changes the refractive index at the surface.

Test [2] concerns the target FIX N346Q with C-terminal His-tag (human, UniProt P00740 47-461). Described as above. Here is the method: as §1, §2
Test [3] deals with FIX A334L with C-terminal His-tag (human, UniProt P00740 47-461). Described as above. As to the method:
as §1, §2

The target of test [4] is FIX N346A with C-terminal His-tag (human, UniProt P00740 47-461). Described as above. Here is the method:
as §1, §2

The target in test [5] is FIX T343A with C-terminal His-tag (human, UniProt P00740 47-461). The description is as above. As to the method: as §1, §2
Sequence of FIX T343A with C-terminal His-tag (P00740 other isoform, or with tags, fused parts or gaps T343A T343A limits assumed): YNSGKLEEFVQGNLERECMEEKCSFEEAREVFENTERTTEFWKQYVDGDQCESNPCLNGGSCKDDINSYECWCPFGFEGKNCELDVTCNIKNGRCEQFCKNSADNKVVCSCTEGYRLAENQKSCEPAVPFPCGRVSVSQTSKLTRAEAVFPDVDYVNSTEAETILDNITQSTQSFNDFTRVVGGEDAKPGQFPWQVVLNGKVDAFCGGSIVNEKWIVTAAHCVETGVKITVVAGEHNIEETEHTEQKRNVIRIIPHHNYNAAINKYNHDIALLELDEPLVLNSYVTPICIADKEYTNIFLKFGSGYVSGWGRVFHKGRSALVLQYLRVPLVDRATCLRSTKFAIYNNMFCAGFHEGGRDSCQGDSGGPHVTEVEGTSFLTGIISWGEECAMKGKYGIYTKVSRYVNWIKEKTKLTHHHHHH
Test [6] concerns the target FIX L337A with C-terminal His-tag (human, UniProt P00740 47-461). Described as above. Here is the method:
as §1, §2

For test [7], the target named is FIX K301A with C-terminal His-tag (human, UniProt P00740 47-461). Described as above. As to the method: as §1, §2
Sequence of FIX K301A with C-terminal His-tag (P00740 other isoform, or with tags, fused parts or gaps K301A K301A limits assumed): as the sequence (P00740 other isoform, or with tags, fused parts or gaps T343A T343A limits assumed) above, with K301A, A343T counted along it
Test [8] has as its target FIX T340A with C-terminal His-tag (human, UniProt P00740 47-461). The description is as above. Here is the method:
as §1, §2

Test [9] concerns the target FIX R338A with C-terminal His-tag (human, UniProt P00740 47-461). The test is described as above. Here is the method:
as §1, §2

For test [10], the target named is FIX K341A with C-terminal His-tag (human, UniProt P00740 47-461). The test is described as above. As to the method:
as §1, §2

Test [11] has as its target FIX T343I with C-terminal His-tag (human, UniProt P00740 47-461). Described as above. As to the method:
as §1, §2

Test [12] concerns the target FIX D332A with C-terminal His-tag (human, UniProt P00740 47-461). The test is described as above. As to the method:
as §1, §2

The target of test [13] is FIX S339L with C-terminal His-tag (human, UniProt P00740 47-461). Described as above. As to the method:
as §1, §2

Test [14] addresses FIX K341E with C-terminal His-tag (human, UniProt P00740 47-461). The test is described as above. Here is the method:
as §1, §2

Test [15] deals with FIX R333A with C-terminal His-tag (human, UniProt P00740 47-461). The test is described as above. Here is the method: as §1, §2
Sequence of FIX R333A with C-terminal His-tag (P00740 other isoform, or with tags, fused parts or gaps R333A R333A limits assumed): as the sequence (P00740 other isoform, or with tags, fused parts or gaps T343A T343A limits assumed) above, with R333A, A343T counted along it
The target in test [16] is T1, wild-type FIX with C-terminal His-tag (human, UniProt P00740 47-461).
T1 construct: Secreted mature FIX from expi293F cells; also called WT
T1 sequence (P00740 other isoform, or with tags, fused parts or gaps limits assumed): as the sequence (P00740 other isoform, or with tags, fused parts or gaps T343A T343A limits assumed) above, with A343T counted along it
The test is described as follows: SPR (Biacore T200), His-tagged FIX captured by anti-His antibody, one-armed antibody as analyte; % of wild-type binding. As to the method:
as §1

Test [17] has as its target FIX D332S with C-terminal His-tag (human, UniProt P00740 47-461). Put plainly: SPR (Biacore T200), His-tagged FIX variant captured by anti-His antibody, one-armed antibody as analyte; % of wild-type binding. Here is the method:
as §1, §2

Sequence of FIX D332A with C-terminal His-tag (P00740 other isoform, or with tags, fused parts or gaps D332A D332A limits assumed): as the sequence (P00740 other isoform, or with tags, fused parts or gaps T343A T343A limits assumed) above, with D332A, A343T counted along it
Sequence of FIX A334L with C-terminal His-tag (P00740 other isoform, or with tags, fused parts or gaps A334L A334L limits assumed): as the sequence (P00740 other isoform, or with tags, fused parts or gaps T343A T343A limits assumed) above, with A334L, A343T counted along it
Sequence of FIX S339L with C-terminal His-tag (P00740 other isoform, or with tags, fused parts or gaps S339L S339L limits assumed): as the sequence (P00740 other isoform, or with tags, fused parts or gaps T343A T343A limits assumed) above, with S339L, A343T counted along it
Sequence of FIX T335A with C-terminal His-tag (P00740 other isoform, or with tags, fused parts or gaps T335A T335A limits assumed): as the sequence (P00740 other isoform, or with tags, fused parts or gaps T343A T343A limits assumed) above, with T335A, A343T counted along it
Sequence of FIX K341E with C-terminal His-tag (P00740 other isoform, or with tags, fused parts or gaps K341E K341E limits assumed): as the sequence (P00740 other isoform, or with tags, fused parts or gaps T343A T343A limits assumed) above, with K341E, A343T counted along it
Sequence of FIX L337A with C-terminal His-tag (P00740 other isoform, or with tags, fused parts or gaps L337A L337A limits assumed): as the sequence (P00740 other isoform, or with tags, fused parts or gaps T343A T343A limits assumed) above, with L337A, A343T counted along it
Sequence of FIX K341A with C-terminal His-tag (P00740 other isoform, or with tags, fused parts or gaps K341A K341A limits assumed): as the sequence (P00740 other isoform, or with tags, fused parts or gaps T343A T343A limits assumed) above, with K341A, A343T counted along it
Sequence of FIX T343I with C-terminal His-tag (P00740 other isoform, or with tags, fused parts or gaps T343I T343I limits assumed): as the sequence (P00740 other isoform, or with tags, fused parts or gaps T343A T343A limits assumed) above, with A343I counted along it
Sequence of FIX N346A with C-terminal His-tag (P00740 other isoform, or with tags, fused parts or gaps N346A N346A limits assumed): as the sequence (P00740 other isoform, or with tags, fused parts or gaps T343A T343A limits assumed) above, with A343T, N346A counted along it
Sequence of FIX T340A with C-terminal His-tag (P00740 other isoform, or with tags, fused parts or gaps T340A T340A limits assumed): as the sequence (P00740 other isoform, or with tags, fused parts or gaps T343A T343A limits assumed) above, with T340A, A343T counted along it
Sequence of FIX R338A with C-terminal His-tag (P00740 other isoform, or with tags, fused parts or gaps R338A R338A limits assumed): as the sequence (P00740 other isoform, or with tags, fused parts or gaps T343A T343A limits assumed) above, with R338A, A343T counted along it
Sequence of FIX D332S with C-terminal His-tag (P00740 other isoform, or with tags, fused parts or gaps D332S D332S limits assumed): as the sequence (P00740 other isoform, or with tags, fused parts or gaps T343A T343A limits assumed) above, with D332S, A343T counted along it
Sequence of FIX N346Q with C-terminal His-tag (P00740 other isoform, or with tags, fused parts or gaps N346Q N346Q limits assumed): as the sequence (P00740 other isoform, or with tags, fused parts or gaps T343A T343A limits assumed) above, with A343T, N346Q counted along it

B1: mAb4-0673 (monovalent one-armed variant of mAb0-1886) (antibody, V domains shown)
VH: EVQLVQSGAEVKKPGESLRISCKGSGYSFTSYWIGWVRQMPGKGLEWMGMIDPSDSYTDYGPSFRGHVTISADKSISTAYLQWSSLKASDTAMYYCARVRIMEGAFDIWGQGTMVTVSS
VL: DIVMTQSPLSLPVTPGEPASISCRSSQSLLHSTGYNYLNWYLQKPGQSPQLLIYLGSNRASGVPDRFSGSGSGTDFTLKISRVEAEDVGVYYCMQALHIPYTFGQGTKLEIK
With B1, the “Binding (%) relative to wild-type” value came out at 71% in test [1]; 94% in [2]; 44% in [3]; 51% in [4]; 63% in test [5]; 7% in [6]. The “Binding (%) relative to wild-type” value in test [7] was 93%; in test [8], 67%; in test [9], 3%; in test [10], 96%; in test [11], 90%; in [12] it was 17%. Moreover, the “Binding (%) relative to wild-type” value was determined as 73% in test [13], 53% in [14], 4% in test [15] and 100% in test [16].

B2: mAb4-0004 (monovalent one-armed variant of mAb0-1998) (antibody, V domains shown)
VH: EVQLVESGGGLVQPGRSLKLSCAASGFTFDDYAMHWVRQVPGKGLEWVSGISWNGDNIGYVDSVKGRFTISRDNAKNSLYLQLNSLRAEDTALYYCVKSYGSGSFYNAFDSWGQGTLVTVSS
VL: DIQMTQSPSTLSASAGDRVTITCRASQSISSWLAWYQQKPGKAPKFLIYKASSLESGVPSRFSGSGSGTEFSLTISSLQPDDFATYYCLEYSSYIRTFGQGTKVEIK
Take B2: the “Binding (%) relative to wild-type” value in test [1] was determined as 62%; in test [3], 51%; in test [4], 73%; in test [5] it was 38%; in [6], 52%; in test [7] it was 66%. Besides, the “Binding (%) relative to wild-type” value was determined as 37% in test [8]; 2% in test [9]; 21% in test [10]; 48% in test [11]; 50% in test [12]; 66% in [13]. Further, the “Binding (%) relative to wild-type” value was found to be 2% in [14], 66% in test [15], 66% in test [17] and 100% in [16].
